From PMC5470993, “Discovery and characterization of small molecule Rac1 inhibitors” (Oncotarget, 2017)

Target: Recombinant Rac1 (1-192aa), His-tagged fusion protein (UniProt P63000 1-192)
Assay: pull-down; cell-free: 5 μg purified His-Rac1 in 20 μl GTP binding buffer (20 mM Tris-HCl pH 7.6, 100 mM NaCl, 2 mM MgCl2, 1 mM DTT) with 1% BSA, GTP-γS (0.01-10 μM, or 200 nM after 1 h with compound #1 or #6) for 10 min at room temperature, then 1 h with GST-PAK1 on agarose beads; Rac1 immunoblot
Details: both partners purified

B1: GST-PAK1-PBD (70-117aa) (domain or fragment)
chain: KERPEISLPSDFEHTIHVGFDAVTGEFTGMPEQWARLLQTSNITKSEQ
notes: Held on glutathione/agarose beads; The methods also name a Rac1/Cdc42 assay kit (Upstate Biotechnology); also called GST-PAK1 (RBD); source: E. coli DH5α, purified on glutathione resin; plasmid from Addgene
**Q.** Does B1 bind?
**A.** binds
